Measured values from patent publication US20150050278A1.

Columns and labels:
nucleolin = nucleolin (UniProt P19338); assay: ELISA (FIG. 11)
gp140 [1] = assay: ELISA (FIG. 10)
gp140 [2] = assay: ELISA on gp140, OD405

affinity (nucleolin) | affinity (gp140 [1]) | EC50 (read off the curve) (gp140 [2]) | Binder
50 nM |  |  | gn1 (designed binder) APELLGGPSVFLFPPSPKDTLMISRTPEVTCVVVDVSHEDPEVKFNWYVDGVEVHNAKTKPREEQYNSTYSVASLLTVLHQDWLNGKEYKCKVSNKALPAPIEKTISKAKGQPREPQVYTSPPSRDELTKNQVSLRCHVKGFYPSDIAVEWESNGQGAKGSSGSTWGYGMDVWVPVLDSDSSFFLYSKLTVDKSRWQQGNVFSCSVMHEALHNHYTQKSLSLSPGK
 | 50 nM | 80 nM | gg37 (designed binder) APELLGGPSVFLFPPTPKDTLMISRTPEVTCVVVDVSHEDPEVKFNWYVDGVEVHNAKTKPREEQYNSTYGVSSGLTVLHQDWLNGKEYKCKVSNKALPAPIEKTISKAKGQPREPQVYTSPPSRDELTKNQVSLRCHVKGFYPSDIAVEWESNGQGARGGMNWFDPWVPVLDSDGSFFLYGKLTVDKSRWQQGNVFSCSVMHEALHNHYTQKSLSLSPGK
